# Test results taken from paper PMC6884552, “Glycogen branching enzyme controls cellular iron homeostasis via Iron Regulatory Protein 1 and mitoNEET” (Nature Communications, 2019).
# T1: Flag-tagged Drosophila Iron Regulatory Protein 1A (IRP1A), wild type (Drosophila, UniProt Q9VCV4 1-902)
# T1 construct: Drosophila IRP1A, cDNA LD36161; also called wild type IRP1A; 3x Flag-tagged IRP1A; source: S2 cells, transfected, in lysate
# T1 sequence (looked up): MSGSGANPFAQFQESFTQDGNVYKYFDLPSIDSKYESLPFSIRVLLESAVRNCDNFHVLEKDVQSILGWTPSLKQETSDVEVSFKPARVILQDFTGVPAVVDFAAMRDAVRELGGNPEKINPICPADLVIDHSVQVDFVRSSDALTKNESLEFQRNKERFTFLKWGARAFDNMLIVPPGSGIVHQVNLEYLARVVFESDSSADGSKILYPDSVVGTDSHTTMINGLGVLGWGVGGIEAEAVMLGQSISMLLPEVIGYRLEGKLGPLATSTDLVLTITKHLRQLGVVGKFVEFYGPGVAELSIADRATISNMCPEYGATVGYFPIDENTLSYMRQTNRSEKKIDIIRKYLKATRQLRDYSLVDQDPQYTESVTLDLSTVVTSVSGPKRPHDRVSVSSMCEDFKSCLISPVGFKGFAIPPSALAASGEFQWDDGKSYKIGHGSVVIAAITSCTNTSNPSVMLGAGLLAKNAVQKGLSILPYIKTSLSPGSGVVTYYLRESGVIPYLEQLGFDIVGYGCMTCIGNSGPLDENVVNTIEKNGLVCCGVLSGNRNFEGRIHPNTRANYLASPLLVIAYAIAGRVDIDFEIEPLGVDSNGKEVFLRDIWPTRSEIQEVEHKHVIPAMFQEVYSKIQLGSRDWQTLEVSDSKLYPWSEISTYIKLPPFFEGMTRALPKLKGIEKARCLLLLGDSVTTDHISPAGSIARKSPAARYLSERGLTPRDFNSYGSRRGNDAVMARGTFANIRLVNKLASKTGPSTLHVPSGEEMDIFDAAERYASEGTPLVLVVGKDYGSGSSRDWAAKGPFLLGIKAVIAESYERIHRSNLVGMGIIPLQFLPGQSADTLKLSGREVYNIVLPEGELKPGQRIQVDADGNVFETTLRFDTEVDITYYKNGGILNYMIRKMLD
# B1: HA-tagged Drosophila Cisd2 (natural protein, UniProt Q9VAM6 1-133, looked up)
# chain: MEPISHLVKSSLPNYLSSLPVPDSIGGWFKLSFKDWLALIPPTVVVAGLGYTAYLAYCPAARASCAAKNSGRCNNHIRKNEPKVVDMIDVEDIAEKAAFCRCWKTKNWPYCDGSHGEHNKQTGDNVGPIVIKK
# notes: Drosophila Cisd2, cDNA RE49709; also called mitoNEET; Cisd2/mitoNEET; source: S2 cells, transfected, in lysate
# Molecular target: T1, Flag-tagged Drosophila Iron Regulatory …
# Experiment: co-IP; S2 cells, triple co-transfection of 3xFlag-IRP1A, 6xMyc-AGBE and 3xHA-Cisd2 from one plasmid; Flag-IRP1A as bait; co-precipitated Cisd2 quantified against the sample without AGBE; three biological replicates
# Conditions: partners not purified
binder,measurement,value
B1,fold change of co-immunoprecipitated Cisd2 with AGBE co-transfected against without AGBE,~3 fold
